Patent US9580716B2, “Site-specific incorporation of phosphoserine into proteins in Escherichia coli” (Yale University, priority 2010, dated 2017)

B1: tRNA^Sep: amber suppressor tRNA derived from Mj tRNA^Cys with C20U change and two anticodon mutations; SEQ ID NO:41 (nucleic acid)
chain: GCCGGGGTAGTCTAGGGGTTAGGCAGCGGACTGCAGATCCGCCTTACGTGGGTTCAAATCCCACCCCCGGCT
modifications: expressed or natural sequence

Tests used:
E. coli Top10ΔserB = assay: CAT (UAG at position 112) suppression assay, chloramphenicol resistance; format: cell-based, Escherichia coli
Description: The suppressor tRNA^Sep was coexpressed with the indicated enzymes in E. coli Top10ΔserB. Selection was carried out on LB agar plates containing 2 mM Sep and various concentrations of chloramphenicol.
pCAT112TAG-SepT was created from pACYC 184. The gene encoding chloramphenicol acetyltransferae (CAT) was modified by quickchange mutagenesis to introduce an amber stop codon at position Asp112 (Wang L, et al. Science 292:498 (2001)). The resulting plasmid was PCR amplified using primers PBLAF (5′-TGCGCAATGCGGCCGCCCGTAGCGCCGATGGTAGTGT-3′, SEQ ID NO:9) and PBLAR (5′-ACACGGAGATCTCTAAAGTATATATGAGTAAAC-3′, SEQ ID NO: 10) and ligated with a PCR product containing a tRNA^Sep expression cassette from pSepT, created with primers TSEPF (5′-GCATGCGCCGCCAGCTGTTGCCCGTCTCGC-3′, SEQ ID NO:17) and TSEPR (5′-GCATAGATCTTCAGCTGGCGAAAGGGGGATG-3′, SEQ ID NO:18).
Efficient and selective addition of Sep to the E. coli genetic repertoire requires exclusive interaction of SepRS with tRNA^Sep for Sep-tRNA^Sep formation without interfering in the host translation system as well as a sufficient intracellular concentration of Sep. As E. coli has a Sep-compatible transporter (Wanner, B L. FEMS Microbiol Lett 79, 133 (1992)), Sep (2 mM) was added to the growth medium, and the endogenous serB gene encoding phosphoserine phosphatase was deleted in the E. coli test strain. To assess whether the Mj tRNA^Sep/Mmp SepRS pair is functional and orthogonal in E. coli, a suppression assay was performed that employed a chloramphenicol acetyltransferase (CAT) gene with a UAG stop codon at the permissive position 112 (wild-type amino acid: Asp) to produce chloramphenicol (Cm) acetyltransferase; then cell survival was measured in the presence of Sep and varying amounts of Cm. The different IC50 values (FIG. 2) relate to suppression efficiency (i.e., amount of CAT made dependent on the various transformed genes). When only tRNA^Sep is expressed (FIG. 2, second bar) Cm resistance increases about 3.3-fold over background (FIG. 2, first bar). Thus, tRNA^Sep can be aminoacylated to a certain degree by an unknown E. coli aminoacyl-tRNA synthetase (Gln is being incorporated at the amber stop codon). […] This may indicate that SepRS can out-compete any endogenous aminoacyl-tRNA synthetase and form Sep-tRNAS^Sep; however, this aminoacyl-tRNA is not delivered to the ribosome or not accommodated on the ribosome. […] Co-expression of tRNA^Sep, SepRS and SepCysS should result in formation of Sep-tRNA^Sep and subsequent SepCysS-mediated conversion to Cys-tRNA^Sep (A. Sauerwald et al., Science 307, 1969 (2005)). Indeed, a 2.3-fold increase in Cm resistance is observed (FIG. 2, sixth bar). This further supports the notion that while Sep-tRNA^Sep is synthesized, it cannot be used properly by the E. coli protein biosynthesis machinery.
Resulting pKD-SepRS-EFTu plasmids were transformed into E. coli Top10ΔserB containing pCAT112-SepT for a third round of selection which was carried out under the same conditions as the first. This time, individual colonies were isolated from agar plates and clones were tested for their ability to grow on Cm over a concentration range from […]. Total plasmid was purified from isolates showing strong Cm resistance, and pKD-SepRS-EFTu plasmids were subjected to sequencing. […]

[^14C]Sep-tRNA^Cys = EF-Tu hydrolysis protection assay with Sep-tRNA^Cys; format: binding, Methanocaldococcus jannaschii; conditions: pH 8.2; 40 μM factor, 2 μM [^14C]Sep-tRNA^Cys, 25° C.; FIG. 3 and FIG. 5B
Description: Protection of Sep-tRNA^Cys by EF-Tu was assayed as described earlier with slight modifications (Ling J, et al. RNA. 2007 November; 13(11):1881-6.). Briefly, EF-Tu or EF-Sep (both purified as maltose binding protein fusion proteins) were activated for 20 min. at 37° C. in buffer containing 100 mM Tris-HCl (pH 8.2), 120 mM NH4Cl, 7 mM MgCl2, 5 mM DTT, 5 mM phosphoenolpyruvate, 1.5 mM GTP, and 0.12 μg/μl pyruvate kinase. Hydrolysis of 2 μM [^14C]Sep-tRNA^Cys was then monitored at 25° C. in the presence of 40 μM EF-Tu (wt), EF-Sep, or BSA, respectively. Aliquots were taken from the reaction mix at indicated time points and spotted on 3MM filter discs presoaked with 10% trichloroacetic acid. Filters were washed with 5% trichloroacetic acid, dried, and radioactivity was measured by liquid scintillation counting.
(§1) To assay hydrolysis protection of acylated tRNA^Cys by EF-Tu, […] tRNA^Cys in vitro transcripts acylated with [^14C]Sep or [^35S]Cys, respectively, were phenol/chlorophorm extracted, and the aqueous phase was passed over Sephadex® G25 Microspin columns (GE Healthcare) equilibrated with water. […] Hydrolysis of 2 μM [^14C]Sep-tRNA^Cys was then monitored at 25° C. in the presence of 40 μM EF-Tu (wt), EF-Sep, or BSA, respectively. […] Filters were washed with 5% trichloroacetic acid, dried, and radioactivity was measured by liquid scintillation counting.

[^35S]Cys-tRNA^Cys = EF-Tu hydrolysis protection assay with Cys-tRNA^Cys; format: binding, Methanocaldococcus jannaschii; conditions: pH 8.2; FIG. 5A
Description: FIGS. 5A and 5B are graphs showing EF-Tu protects Cys-tRNA^Cys(FIG. 5A) but not Sep-tRNA^Cys (FIG. 5B) from deacylation. Hydrolysis of M. jannaschii [^35S]Cys-tRNA^Cys or [^14C]Sep-tRNA^Cys was determined at pH 8.2 and room temperature in the presence or absence of EF-Tu.
Given that EF-Tu is a component of quality control in protein synthesis (LaRiviere, FJ., et al. Science 294, 165 (2001)), it is highly plausible that Sep-tRNA^Sep may be rejected by EF-Tu in order not to interfere with the complicated cellular mechanism of phosphoprotein production. […] This assumption was tested in EF-Tu mediated Sep-tRNA hydrolysis protection experiments (J. Ling et al., Proc Natl Acad Sci USA 104, 15299 (2007)), and incubated recombinant E. coli EF-Tu with the Mj tRNA^Cys in vitro transcript either acylated with [^35S]Cys or [^14C]Sep at pH 8.2. […]
as §1

Mmp SepRS = assay: In vitro aminoacylation of tRNA with Sep by Mmp SepRS; format: biochemical, Methanococcus maripaludis
Sequence of Mmp SepRS (as listed by the source): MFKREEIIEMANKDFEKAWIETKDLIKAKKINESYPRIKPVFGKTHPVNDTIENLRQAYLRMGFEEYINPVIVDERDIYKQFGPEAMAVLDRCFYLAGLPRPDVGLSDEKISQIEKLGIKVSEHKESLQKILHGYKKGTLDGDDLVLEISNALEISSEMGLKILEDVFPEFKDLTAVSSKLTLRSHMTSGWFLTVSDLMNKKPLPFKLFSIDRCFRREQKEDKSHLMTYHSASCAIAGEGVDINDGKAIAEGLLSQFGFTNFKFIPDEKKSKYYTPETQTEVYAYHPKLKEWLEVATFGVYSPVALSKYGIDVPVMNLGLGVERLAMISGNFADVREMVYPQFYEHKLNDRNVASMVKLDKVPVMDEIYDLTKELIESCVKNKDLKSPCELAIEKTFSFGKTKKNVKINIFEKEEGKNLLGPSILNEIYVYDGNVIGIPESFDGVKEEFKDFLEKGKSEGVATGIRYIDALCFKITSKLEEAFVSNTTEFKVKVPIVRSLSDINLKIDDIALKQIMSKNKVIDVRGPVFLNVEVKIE
Description: In vitro transcript of Methanocaldococcus jannaschii tRNA^Cys was prepared and acylated with [^14C]Sep (55 mCi/mmol) using recombinant Methanococcus maripaludis SepRS as described previously by Hohn M J, et al. Proc Natl Acad Sci USA. 2006 Nov. 28; 103(48):18095-100. Sep-tRNA^Cys was phenol/chlorophorm extracted, and the aqueous phase was passed over Sephadex G25 Microspin columns (GE Healthcare) equilibrated with water.
Total tRNA from E. coli Top10 or from E. coli Top10 complemented with pCysT or pSepT, respectively, was purified by standard procedures and acylated with [^14C]Sep by M. maripaludis SepRS as described previously. […] M. jannaschii tRNA^Cys contains m^1G37 when isolated from M. jannaschii. Since the E. coli methylase TrmD is known to methylate G37 of archaeal tRNA^Pro, it is believed that the in vivo expressed tRNA^Sep also carries the m^1G37 modification. In vitro transcript of M. jannaschii tRNA^Cys was prepared and acylated with [^14C]Sep or [^35S]Cys using recombinant M. maripaludis SepRS or CysRS. M. jannaschii tRNA^Cys transcript was chosen for these experiments because of the poor folding properties of in vitro transcribed M. maripaludis tRNA^Cys (Hohn, M. J. Proc Natl Acad Sci USA 103, 18095 (2006)).

Molecule	Cm resistance (E. coli Top10ΔserB; tRNA^Sep and SepRS plus additional EF-Tu, FIG. 2 fifth bar)	protection of Sep-tRNA^Cys from deacylation ([^14C]Sep-tRNA^Cys)	protection of Cys-tRNA^Cys from deacylation ([^35S]Cys-tRNA^Cys)	activity of tRNA^Sep when compared to tRNA^Cys (Mmp SepRS; in vitro aminoacylation by Mmp SepRS, tRNA overexpressed in E. coli, effect of the anticodon change, FIG. 1C)	improvement of aminoacylation by SepRS through the C20U change (Mmp SepRS; tRNA^Sep derived from Mj tRNA^Cys, no effect on CysRS recognition) [fold]	increase in Cm resistance (E. coli Top10ΔserB; co-expression of tRNA^Sep and Mmp CysRS, FIG. 2 eight bar) [fold]	increase in Cm resistance (E. coli Top10ΔserB; co-expression of tRNA^Sep, SepRS and SepCysS, FIG. 2 sixth bar) [fold]	increase in Cm resistance over background (E. coli Top10ΔserB; only tRNA^Sep expressed, 2 mM Sep, FIG. 2 second bar)	Cm resistance (E. coli Top10ΔserB; simultaneous expression of tRNA^Sep and SepRS, FIG. 2 third bar)
EF-Tu: wild type recombinant E. coli elongation factor Tu	does not improve the result	significantly deacylated irrespective of the presence of EF-Tu	protected						
B1				about 40%	2.5	12.3	2.3	about 3.3 fold	does not provide Cm resistance
